The results in this text go back to patent US20250128187A1.

The target in the assay is streptavidin immobilized on membrane (streptavidin modified membrane prepared according to FIG. 10) (Streptomyces avidinii) (UniProt P22629). Briefly: depletion from solution; 0.0055 mL streptavidin membrane incubated in 0.4 mL of 1 mg/mL biotin-conjugate for 24 hours.
streptavidin immobilized on membrane (streptavidin modified membrane prepared according to FIG. 10) (Streptomyces avidinii), sequence (P22629 37-163 limits assumed): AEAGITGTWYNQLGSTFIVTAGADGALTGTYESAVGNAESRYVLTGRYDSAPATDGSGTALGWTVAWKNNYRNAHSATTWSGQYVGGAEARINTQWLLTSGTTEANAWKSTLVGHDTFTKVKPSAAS

Take Biotin-Mal 1: the Amount Immobilized (mg biotin-conjugate/mL membrane) (mg biotin-conjugate/mL membrane) worked out at 9.71.
On to Biotin-BSA (from UniProt P02769 25-607), for which the Amount Immobilized (mg biotin-conjugate/mL membrane) (mg biotin-conjugate/mL membrane) amounted to 38.6.
